{
  "source": "the DeepSol protein solubility set",
  "data": [
    {"experiment": "soluble on expression in E. coli; label from the status in PepcDB or PDB records", "values": [
      {"sequence": "MTARNPLEAQAWALLEAVYDPELGLDVVNLGLIYDLVVEPPRAYVRMTLTTPGCPLHDSLGEAVRQALSRLPGVEEVEVEVTFEPPWTLARLSEKARRLLGWG", "soluble on expression in E. coli": "soluble"},
      {"sequence": "MTASERVVVKELSSSLLDMKFMLKKKKQIETKAAKKKEAKLDQLITEKEAEATCSTEILKSSEPKLEICYDYAKLENLKFGRLSFGGFNKEVELLMEYYEKLQNGMLSDSDDDGMDVDDEEMAKSLGGQKLAALDKKSQSKRERRQQNERNEETTGGRRFNIKDIRKRFAADDVADAPERKFMKPAEDC", "soluble on expression in E. coli": "not soluble"},
      {"sequence": "MTASHGQAAAIPTVTLNDDNTLPVVGIGVGELSDSEAERSVSAALEAGYRLIDTAAAYGNEAAVGRAIAASGIPRDEIYVTTKLATPDQGFTSSQAAARASLERLGLDYVDLYLIHWPGGDTSKYVDSWGGLMKVKEDGIARSIGVCNFGAEDLETIVSLTYFTPAVNQIELHPLLNQAALREVNAGYNIVTEAYGPLGVGRLLDHPAVTAIAEAHGRTAAQVLLRWSIQLGNVVISRSANPERIASNLDVFGFELTADEMETLNGLDDGTRFRPDPATYTGS", "soluble on expression in E. coli": "soluble"},
      {"sequence": "MTATSSPTTRFTDRVVLITGGGSGLGRATAVRLAAEGAKLSLVDVSSEGLEASKAAVLETAPDAEVLTTVADVSDEAQVEAYVTATTERFGRIDGFFNNAGIEGKQNPTESFTAAEFDKVVSINLRGVFLGLEKVLKIMREQGSGMVVNTASVGGIRGIGNQSGYAAAKHGVVGLTRNSAVEYGRYGIRINAIAPGAIWTPMVENSMKQLDPENPRKAAEEFIQVNPSKRYGEAPEIAAVVAFLLSDDASYVNATVVPIDGGQSAAY", "soluble on expression in E. coli": "soluble"},
      {"sequence": "MTATTNESQEIAMTATTADEIPASTEQNLRIVQRVIFPANRDLDTLPLYVDPDTNKLHTSGGGADVQAIGMARKLHPEDILNRGSVQVRRGERLSFGSYFNAFPASYWRKWTIATKTVLHIETEGEGTVIVYRSNARGASQRVDSILVEGPSTNEFELTLAPFGDGGWYWFDLIAGGDGMTLKSAHWAVPDEGRPQGRVTLGVTTFNRADYCLETIKSIDGDAGLREILAELIIVDQGNKKVADQAGFDAVAESMGDQLRIINQGNLGGSGGFARNMYEMVVSDKSDYVMLLDDDIELETEGVMRAVAFADLCRKPTIVGGHMFDMYNKSVLHAYSEVVNFYRFLWGPVEGLGNHDFSTAGLRSTPQLHRRWDADYNGWWMCLIPKTVVETIGLSLPVFIKWDDAEYSLRGRAAGFPTVTLPGAAVWHVSWADKDDSVDWQAYYHERNRLIATLLHSPFPKGGRILRESLNTDVKHLVSMQYYPEQARVMALRDVLAGPDNLHKQLPTTMPKLRAMREEFPDSQVKTDPAAFPEVFRKRPPKKPQSFKQPGALGLLPWAVKTVLKQTLAPVRGTAKAAPEAHVAHQDGKWWSLAHLDSAVVSNADGTGASWHLRNPKMARQLVVESAKLHAQLFSNWETLRAQYREALPEITSMESWRETFEASEPSK", "soluble on expression in E. coli": "not soluble"},
      {"sequence": "MTAVRRIRAAALPDLPDASWSNALLVGEELVMSGMTAHPATRQAAERGAALDAHAQALVVLGKVKALLEAAGGHVGNLYKLNVYVTRIADKDAIGRARQEFFAGQGTFPASTLVEVSGLVFPELLVEIDAWARLDIDLANCDEA", "soluble on expression in E. coli": "soluble"},
      {"sequence": "MTAVTAGKLIGVGVGPGDPELLTVKAVKAIKSADVIVFHAKPNGQSAAHRIAESYIRQDQVLELLEYPVTTGVTEHPGGYAGAMAAFYASVGERLRDHLIEGKNVVVLALGDPMLYSSYQHIHRLLSEDFNAEIIPGIPSITSAADVLGKPLCEDDDVLTILPGTLPHSELVARLSDSDGAVVMKLGRTFDKVRKAMIEAGVADRAHVVVRVGMADQHSVPVMEADPQAIPYFSVAVVPSITDTNGDSGDKQQGEVVVVGLGPGGHRWTTPEVMAELKQATDIVGYSTYVNRVPQQAGQRRHLSDNKVEAERAAMALDMAKQGRKVAVVSSGDPGVFAMAAAVLETADDDQWREVPVRIIPGMTAAQAVASRVGAPLGHDFGMISLSNRLKPFEIVEKRIRALASADMAFACYNPASKERRWQVARMKEIVSEYQAGSTPVIVARAVGSDQETVTVTTLEDFDPDIVDMRTMVIIGASTTKTYQGGDGVRVFTSRWYT", "soluble on expression in E. coli": "not soluble"},
      {"sequence": "MTDKSKTEKLISSDDKQSVIDGILDMVFNSKAYEVPWISEKLMELSKNKDLDIAGLSLTCFGHLARLHSNIGDYDKVIPLLHSKQDDPELQGRAEDALEDISLFLSENH", "soluble on expression in E. coli": "not soluble"},
      {"sequence": "MTDNPAVDKRDQILAAAEQLIAESGFQGLSMQKLANEAGVAAGTIYRYFSDKEHLLEEVRLNVAKRIASAVQAGVNDDMPLKECYRTMWLNIWNLAGSNLNAISNRVQYDSLPCTTRNKTWELERKMFAQVDRLFNQGKEEGVFKPLDNEVLSGLSFEASVALARKHALGFYQLDDDALEAAIEASWDAIIKH", "soluble on expression in E. coli": "soluble"},
      {"sequence": "MTDSDGKIVWETGYQVWGNTIQEKDHGGVEQNLRYQGQYLDRETGLHYNLHRYYDPDVGRFMVTDPIGLRGGLNLYSYAPNPLKYADPLGLTPCAVSNQKANRLLDSSETKVTVRSRSDAEQLFMDRYLGHNYKNMTGESGPSTKNLMEYLTENKTKAGSYHWDDIKDPSVTKPSYRVSGHGPGNPDGDLPHLQVHQHGGSVRHIFFPWETLEHHHHHH", "soluble on expression in E. coli": "not soluble"},
      {"sequence": "MTDYPSIFEPLTVKRMTIKNRVIMPPMGTNLAGLNGEFLEEHMNYYEQRAKGGTGLITIENACVDFPYGTNGTTQLRIDNDQYIPGFYKLTERLHKHGTCVSIQINHAGASAYPARLNGLQPVSASDIPSKKGGTVPRPLTVEEIYEIVNKYGDAARRAQQAGFDAVEIHGGHSYLLCQFLSPLYNKRTDEFGGTPENRARIVKLILEKVRAEVGPFFPIVLRFSADEFTEGGNHLEDILELLDYCQEEADILNVSAAINDNLYLQIDQMNLEDGWRSYLAKAVKDKFNKPTITSGNIRSPKAAEKILSEGYADLLAMGRGLIAEPNWVNKVATGQEDMLRKCISCNIGCADHRISKSKPIRCTVNPDIIHEDKYKETKVTRPTNVVVIGGGTAGLEAACTAAEVGCNTTLIEANEQTGGLARAIANLPDKSRIADFPNYLANRAEKLTNLKVITGTKADTALIDTFNPDVVVNATGSKPLLPPIKGLLDVIDKEGSKVHSIFGLISNIDDFTEFSNKKVAVIGGGAVGLDVVEYFSERGSDVTIVEMMPLLGKDLDMITRLSMMDIIEKNHVDVQTETALTEVAADHFKVKHDGVDAEIPFDYGFVCLGMRPERPLMEELAAYGKEKQIEIVNIGDSAATRKILEGVREGRNILTTLEKIGSL", "soluble on expression in E. coli": "not soluble"},
      {"sequence": "MTEAAKKSTKKPVDDGNFDKEIISRWPDLELSQTRFMLNHPEVDSSVKEAKLEKLQETIKEFDMAPFYELVCADFKIVVDATQLAAMKAANQKKIDEITAEVEDAEKNLGESEVRQGLLRKFEYYCQIGDKDNALKAYTATYEKTVGMGYRIDVVFAMIRVGLFFLDHHLINKFITKAKELMEQGGDWERKNRLRSYEALYRMSVRDFAGAADLFLEAVPTFGSYELMTYENLILYTVITTTFALDRPDLRTKVIRCNEVQEQLTGGGLNGTLIPVREYLESYYDCHYDRFFIQLAALESERFKFDRYLSPHFNYYSRGMRHRAYEQFLTPYKTVRIDMMAKDFGVSRAFIDRELHRLIATGQLQCRIDAVNGVIEVNHRDSKNHLYKAVIKDGDILLNRIQKLARVINA", "soluble on expression in E. coli": "not soluble"},
      {"sequence": "MTEDLFGDLQDDTILAHLDNPAEDTSRFPALLAELNDLLRGELSRLGVDPAHSLEIVVAICKHLGGGQVYIPRGQALDSLIRDLRIWNDFNGRNVSELTTRYGVTFNTVYKAIRRMRRLKYRQYQPSLL", "soluble on expression in E. coli": "soluble"},
      {"sequence": "MTEDRNFDDIAHKFAKNIYGSDKGEIRQVIVWEDLEQLLSQLDTQKVPLHVLDAGGGLAQVSQKIARLGHRVTLCDLSSEMLQLAEQDIANNGLLEQYRFVHSPVQTIQAHLDAPVDLVLFHAVMEWLAEPKPALQNLLAQVRPGGMVSVMFYNYHGLVYKNAVCGNIPHVLEDMPHRKRFKLQPQKGLLPEEVYQWIEESSFEICGKSGIRCFSDYIGNMKNMGEYQYEDLVALERKFCRQEPYLSLGRYIHVWAKKKQ", "soluble on expression in E. coli": "not soluble"},
      {"sequence": "MTEEMNQIDVQVPEVGDVVKGIVTKVEDKHVDVEIINVKQSGIIPISELSSLHVEKASDVVKVDDELDLKVTKVEDDALILSKRAVDADRAWEDLEKKFETKEVFEAEVKDVVKGGLVVDIGVRGFIPASLVEAHFVEDFTDYKGKTLSLLVVELDRDKNRVILSHRAVVESEQANKKQELLQSLEVGSVLDGKVQRLTDFGAFVDIGGIDGLVHISQLSHSHVEKPSDVVEEGQEVKVKVLSVDRDNERISLSIKDTLPGPWNQIGEKVKPGDVLEGTVQRLVSFGAFVEILPGVEGLVHISQISNKHIGTPHEVLEEGQTVKVKVLDVNENEERISLSMRELEETPKADQEDYRQYQAKEETSTGFQLGDLIGDKLNKLKLEHHHHHH", "soluble on expression in E. coli": "soluble"},
      {"sequence": "MTEKKIDFKKEEKKFYAPKRKPERIFVPEMNFLMVDGKGDPDGEEYQKAVQSLYAIAYTIKMSKMGETRLDGYSDFVVPPLEGFWWSEGKFDLKDRDAWLWTSILRQPDFVTEEVLEWAKEVARKKKPDVDTSRVKLVRFEEGECVQMMHVGPFSEEVHTVAEMHQFMETEGLRNDTGAIRKHHEIYLSDPRKANPEKMKTILRLPVS", "soluble on expression in E. coli": "soluble"},
      {"sequence": "MTENERAHADHASASPQRTRRRRGKPRRRMDSGASTQGGGASKSAAPSSSTSGSRGERGSRGDDKDKQNKHTRRKRRPAHRSTQRGSHGGDSSNSGSGIKRRRHTGNKNRGNQSRRQNNRSSRITTRDETSAGGLVISGLAEAVDENNNVDLSRIYVALIGRL", "soluble on expression in E. coli": "not soluble"},
      {"sequence": "MTENKGIMLAKSVQKHAGRAKEKILQNLGKVDRTADEIFDDHLNNFNRQQASANRLQKEFNNYIRCVRAAQAASKTLMDSVCEIYEPQWSGYDALQAQTGASESLWADFAHKLGDQVLIPLNTYTGQFPEMKKKVEKRNRKLIDYDGQRHSFQNLQANANKRKDDVKLTKGREQLEEARRTYEILNTELHDELPALYDSRILFLVTNLQTLFATEQVFHNETAKIYSELEAIVDKLATESQRGS", "soluble on expression in E. coli": "soluble"},
      {"sequence": "MTEPKEERRERRMSSPIMPENMSDFDLIVGEIEAENGAEGSFQRAAECFKLIEDRVSEDPDLSEIMENIRMNQGCEVSGMSTGLSSTATTVSSKMASQWISHMKRSFKRRAICLSEEQQSAMRKMVTEELYTQHGPADLAVRDILLLYSRGLEAHHDGRYREMFERLRPCIPYFNTNVLVWIRISEALIYEYYEETWEFNDIYDRLFEKQPHHYMPSVRRRCNEMRPRHPDMTLRFAETATLMCFALAKQSSREPVHYAAAALHGFMLLKLRKYSEAIEAVNFAVERYDRAGEWQDDLAILLTYKAEGMIGIGRYNRAIEYALRVMNAAKCARARQRATMLVVMAYMRKRNYLKAHEYVIKLLKEGKLDEVMLENVALLGLNLAHLMGNMKLFKRFESMLQRIVY", "soluble on expression in E. coli": "not soluble"},
      {"sequence": "MTEQMWIEKLGLEAHPEGGYFKQTNKSEQLIPTKRGERALHTAILFLLNTESPSHFHRLKADELWFFHDGQPLTVHCIFPDGTYQAVQLGKDLVQGQQLSFSVPAGTIFGSTVATGFALVSCVVTPGFEFEDFELFTQAELLNDYPQHSEIIQHLAYRELPLEHHHHHH", "soluble on expression in E. coli": "soluble"},
      {"sequence": "MTEQVLFSVSENGVATITLNRPKALNSLSYDMLQPIGQKLKEWEHDERIALIVLKGAGTKGFCAGGDIKTLYEARSNEVALQHAERFFEEEYEIDTYIYQYTKPIIACLDGIVMGGGVGLTNGAKYRIVTERTKWAMPEMNIGFFPDVGAAYFLNKAPGYTGRFVALTASILKASDVLFINAADYFMTSDSLPEFLTELESVNWHKEDDVHTNLKEVIRTFATAPNLESELAPSLEVINSHFAFDTIEEIIHSLEKDESSFALKTKEILLSKSPISLKVTLKQFIDGQDKSVEECFATDLILAKNFMRHEDFFEGVRSVVVDKDQNPNYKYKQLSDVSEEDVNRFFNLLNA", "soluble on expression in E. coli": "not soluble"}
    ]}
  ]
}
